Data reported in patent US20240058465A1 (SUTRO BIOPHARMA, published 2024).
Substitutions are numbered along the chain they refer to.

B1: SRP1987-C05 parent (antibody, IgG1, V domains shown)
VH: EVQLVESGGGLVQPGGSLRLSCAASGFNISDYDIHWVRQAPGKGLEWVGGIDPDDGSTDYADSVKGRFTISADTSKNTAYLQMNSLRAEDTAVYYCARDYGVFDYWGQGTLVTVSS
VL: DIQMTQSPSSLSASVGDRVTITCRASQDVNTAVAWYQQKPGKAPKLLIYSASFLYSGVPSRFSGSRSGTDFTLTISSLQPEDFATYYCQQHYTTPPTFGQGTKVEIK
notes: IgG1 with trastuzumab LC; HIS- and FLAG-tagged; cell-free expressed
B2: SRP2188-D01 (antibody, IgG1, V domains shown)
VH: B1 VH with S30K, D31S, G50W, D52N, D54Y, S57D, D59Y
VL: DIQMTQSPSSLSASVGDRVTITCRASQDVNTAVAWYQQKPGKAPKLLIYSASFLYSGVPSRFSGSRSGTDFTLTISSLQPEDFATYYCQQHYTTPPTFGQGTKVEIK
notes: as for B1
B3: SRP2188-A05 (antibody, IgG1, V domains shown)
VH: B1 VH with S30K, D31R, G50W, D52N, S57D, D59Y
VL: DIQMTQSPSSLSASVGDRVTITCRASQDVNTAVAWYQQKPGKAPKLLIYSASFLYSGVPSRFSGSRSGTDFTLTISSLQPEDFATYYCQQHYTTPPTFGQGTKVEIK
notes: as for B1
B4: SRP2188-E10 (antibody, IgG1, V domains shown)
VH: B1 VH with S30G, Y32F, D54R, S57A
VL: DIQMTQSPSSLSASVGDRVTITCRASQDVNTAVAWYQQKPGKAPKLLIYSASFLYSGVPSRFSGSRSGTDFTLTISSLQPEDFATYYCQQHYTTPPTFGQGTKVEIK
notes: as for B1
B5: SRP2188-D10 (antibody, IgG1, V domains shown)
VH: B1 VH with G50R, D54R, S57A
VL: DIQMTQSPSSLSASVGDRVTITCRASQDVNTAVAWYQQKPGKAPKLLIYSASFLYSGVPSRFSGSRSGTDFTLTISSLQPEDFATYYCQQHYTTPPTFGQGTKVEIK
notes: as for B1
B6: SRP2188-F04 (antibody, IgG1, V domains shown)
VH: B1 VH with G10S, Y32F, G49S, S57A
VL: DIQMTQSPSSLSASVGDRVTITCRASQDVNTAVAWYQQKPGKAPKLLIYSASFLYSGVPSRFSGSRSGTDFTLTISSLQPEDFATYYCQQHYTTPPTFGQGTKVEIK
notes: as for B1
B7: SRP2188-F03 (antibody, IgG1, V domains shown)
VH: B1 VH with G49S
VL: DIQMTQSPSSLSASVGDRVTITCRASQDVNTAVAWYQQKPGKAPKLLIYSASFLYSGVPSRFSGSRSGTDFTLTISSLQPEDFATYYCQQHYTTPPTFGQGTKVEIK
notes: as for B1
B8: SRP2188-F09 (antibody, IgG1, V domains shown)
VH: B1 VH with G10D, S30R, G49S, G50A, D54N
VL: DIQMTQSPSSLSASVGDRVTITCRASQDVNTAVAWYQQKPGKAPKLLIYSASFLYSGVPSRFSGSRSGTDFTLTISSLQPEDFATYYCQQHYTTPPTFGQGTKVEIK
notes: as for B1
B9: SRP2188-B05 (antibody, IgG1, V domains shown)
VH: B1 VH with S30P, G50V, S57W, D59H
VL: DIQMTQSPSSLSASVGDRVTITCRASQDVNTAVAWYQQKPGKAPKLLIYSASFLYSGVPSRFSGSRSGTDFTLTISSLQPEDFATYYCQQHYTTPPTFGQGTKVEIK
notes: as for B1
B10: SRP2188-B08 (antibody, IgG1, V domains shown)
VH: B1 VH with S30D, D31S, G50W, D52N, S57D, D59F, N84D
VL: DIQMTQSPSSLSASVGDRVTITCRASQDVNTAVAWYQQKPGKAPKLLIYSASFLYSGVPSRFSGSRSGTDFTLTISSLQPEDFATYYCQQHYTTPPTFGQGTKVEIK
notes: as for B1
B11: SRP2188-C02 (antibody, IgG1, V domains shown)
VH: B1 VH with S30E, D31R, G50W, D52N, S57D, D59Y, M83T, N84K
VL: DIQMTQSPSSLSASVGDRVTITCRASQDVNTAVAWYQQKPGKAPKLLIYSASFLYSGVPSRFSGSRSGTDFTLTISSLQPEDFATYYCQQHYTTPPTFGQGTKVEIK
notes: as for B1
B12: SRP2188-B03 (antibody, IgG1, V domains shown)
VH: B1 VH with D31S, G50A, D54G, S57A, F103Y
VL: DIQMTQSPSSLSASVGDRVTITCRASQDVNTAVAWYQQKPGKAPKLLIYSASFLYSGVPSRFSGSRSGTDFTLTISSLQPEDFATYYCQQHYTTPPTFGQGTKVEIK
notes: as for B1
B13: SRP2188-A07 (antibody, IgG1, V domains shown)
VH: B1 VH with S30H, D31H, G50W, D52N, S57D, D59Y
VL: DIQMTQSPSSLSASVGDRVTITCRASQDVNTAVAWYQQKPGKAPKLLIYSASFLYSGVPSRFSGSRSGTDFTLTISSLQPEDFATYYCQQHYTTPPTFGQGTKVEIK
notes: as for B1
B14: SRP2188-D07 (antibody, IgG1, V domains shown)
VH: B1 VH with Y32F, G49V, D54T, S57A
VL: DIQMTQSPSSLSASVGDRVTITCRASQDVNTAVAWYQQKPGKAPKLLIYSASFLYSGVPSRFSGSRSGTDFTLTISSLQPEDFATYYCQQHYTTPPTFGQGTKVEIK
notes: as for B1
B15: SRP2188-D02 (antibody, IgG1, V domains shown)
VH: B1 VH with D54E, S57A
VL: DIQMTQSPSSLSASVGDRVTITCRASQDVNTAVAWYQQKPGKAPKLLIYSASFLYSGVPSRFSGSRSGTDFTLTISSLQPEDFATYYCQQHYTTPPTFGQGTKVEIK
notes: as for B1
B16: SRP2188-C07 (antibody, IgG1, V domains shown)
VH: B1 VH with S30V, D31R, G50W, D52N, S57D, D59Y
VL: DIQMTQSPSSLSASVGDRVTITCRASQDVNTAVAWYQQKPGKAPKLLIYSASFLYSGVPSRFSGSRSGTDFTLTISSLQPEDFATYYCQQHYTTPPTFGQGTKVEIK
notes: as for B1
B17: SRP2188-C03 (antibody, IgG1, V domains shown)
VH: B1 VH with S30N, D31S, G50W, D52N, S57D, D59Y
VL: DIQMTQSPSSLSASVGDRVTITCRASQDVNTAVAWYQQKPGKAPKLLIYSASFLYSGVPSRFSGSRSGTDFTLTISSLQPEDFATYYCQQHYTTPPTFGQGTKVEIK
notes: as for B1
B18: SRP2188-A09 (antibody, IgG1, V domains shown)
VH: B1 VH with S30I, D31N, G50W, D52N, S57D, D59Y
VL: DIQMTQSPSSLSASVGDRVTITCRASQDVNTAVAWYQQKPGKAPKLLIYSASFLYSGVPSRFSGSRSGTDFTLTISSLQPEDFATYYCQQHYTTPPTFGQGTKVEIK
notes: as for B1
B19: SRP2188-E02 (antibody, IgG1, V domains shown)
VH: B1 VH with S30P, D33E, D52E, D54H, F103Y
VL: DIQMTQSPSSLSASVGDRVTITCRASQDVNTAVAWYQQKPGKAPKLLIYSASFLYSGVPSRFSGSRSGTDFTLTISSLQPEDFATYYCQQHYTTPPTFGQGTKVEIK
notes: as for B1
B20: SRP2188-B04 (antibody, IgG1, V domains shown)
VH: B1 VH with S30T, D31W, G50W, D52N, S57D, D59Y
VL: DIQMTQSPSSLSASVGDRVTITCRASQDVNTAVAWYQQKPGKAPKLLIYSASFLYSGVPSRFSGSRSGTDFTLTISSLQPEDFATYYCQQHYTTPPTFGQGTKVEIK
notes: as for B1
B21: SRP2188-A03 (antibody, IgG1, V domains shown)
VH: B1 VH with S30R, G50W, D52N, S57D, D59Y
VL: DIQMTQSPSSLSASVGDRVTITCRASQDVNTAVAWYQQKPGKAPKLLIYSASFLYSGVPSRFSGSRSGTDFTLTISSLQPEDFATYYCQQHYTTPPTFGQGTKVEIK
notes: as for B1
B22: SRP2188-G01 (antibody, IgG1, V domains shown)
VH: B1 VH with D54N, S57A
VL: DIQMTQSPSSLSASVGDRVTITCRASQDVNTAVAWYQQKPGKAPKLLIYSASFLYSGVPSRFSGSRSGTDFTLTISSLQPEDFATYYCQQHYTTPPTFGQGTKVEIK
notes: as for B1
B23: SRP2188-B01 (antibody, IgG1, V domains shown)
VH: B1 VH with S30N, D31S, Y32H, G50W, D52N, S57D, D59Y, F103L
VL: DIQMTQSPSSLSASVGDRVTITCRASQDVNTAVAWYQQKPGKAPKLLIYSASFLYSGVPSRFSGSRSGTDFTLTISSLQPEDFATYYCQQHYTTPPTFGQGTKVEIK
notes: as for B1

Key:
[1] = molecular target: T1, human ROR1 (hROR1) expressed on cells (human, UniProt Q01973 30-937); experiment: cell-based or functional assay
human ROR1-ECD = molecular target: T2, human ROR1-ECD (human, UniProt Q01973 30-406); experiment: SPR (Biacore), antibody captured by anti-Fc, human ROR1-ECD analyte
T2 construct: Bought protein; also called hROR1; ROR1-extracellular domain
Method: Anti-Fc polyclonal antibodies were immobilized onto a CMS chip (GE Life Sciences) using amine coupling chemistry (from Amine Coupling Kit, GE Life Sciences). The immobilization steps were carried out at a flow rate of 25 μL/min in 1×HBS-EP+buffer (GE Life Sciences; 10× Stock diluted before use). The sensor surfaces were activated for 7 min with a mixture of NHS (0.05 M) and EDC (0.2 M). The Anti-Fc antibodies were injected over all 4 flow cells at a concentration of 25 ug/ml in 10 mM sodium acetate, pH 4.5, for 7 min. Ethanolamine (1 M, pH 8.5) was injected for 7 min to block any remaining activated groups.
Off-rate and kinetic binding experiments were performed at 25° C. using 1×HBS-EP+buffer. Test and control antibodies were injected over the anti-Fc surface at concentrations of 5-10 μg/mL for 12 seconds at a flow rate of 10 μL/min on flow cells 2, 3 and 4, followed by a buffer wash for 30 seconds at the same flow rate. […] After capturing ligand (antibody) on the anti-Fc surface, the analyte (hROR1, Fz or Kr domains, Acro Biosystems, Delaware) was bound for 180 seconds, followed by a 600 second dissociation phase at a flow rate of 50 μL/min. Between each ligand capture and analyte binding cycle, regeneration was carried out using 2 injections of 10 mM Glycine pH 2.0 for 30 seconds at 30 μL/min, followed by a 30 second buffer wash step.

[2] = molecular target: T1, human ROR1 (hROR1) expressed on cells; experiment: flow cytometry, HCT116-hROR1 cells

Binder	Mino Nb-PBD, drug-conjugated 2° antibody Cell Killing IC50 [1] [nM]	Mino Nb-PBD, drug-conjugated 2° antibody Cell Killing Span [1] [%]	Kd (human ROR1-ECD) [nM]	koff (human ROR1-ECD) [s⁻¹]	kon (human ROR1-ECD) [M⁻¹ s⁻¹]	Bmax (MFI) [2] [MFI]	Kd [2] [nM]
B1	0.00077	68	0.694	0.000681	981000	9500	0.04
B2	0.0011	72	–	–	–	8940	0.04
B3	0.001	71	0.227	0.000243	1.07e+06	9030	0.04
B4	0.00099	73	–	–	–	9120	0.04
B5	0.001	65	–	–	–	9070	0.05
B6	0.00072	71	–	–	–	10000	0.03
B7	0.0011	71	–	–	–	10100	0.04
B8	0.0018	59	–	–	–	8760	0.02
B9	0.0011	70	0.757	0.000671	887000	8510	0.03
B10	0.0062	71	–	–	–	9210	0.09
B11	0.01	73	–	–	–	9920	0.13
B12	0.0017	71	0.346	0.000334	965000	9560	0.04
B13	0.00048	75	0.609	0.000406	666000	9330	0.07
B14	0.0017	70	–	–	–	8990	0.04
B15	0.0014	72	–	–	–	10000	0.04
B16	0.00085	71	–	–	–	9160	0.04
B17	0.0011	71	–	–	–	9600	0.03
B18	0.00088	71	0.424	0.000401	944000	9380	0.03
B19	0.00075	76	–	–	–	10500	0.07
B20	0.0012	73	–	–	–	9660	0.05
B21	0.001	71	0.508	0.000389	766000	9700	0.03
B22	0.0015	61	–	–	–	9750	0.05
B23	0.00069	75	–	–	–	9470	0.04
